From the supplement of paper PMC10126150
± gives the standard deviation of the averaged measurements.

Test system: ATP
Test: switch fluorescence ratio, 500 uM ATP over buffer (Cy3 cluster intensity, sum of 5 cycles each) (fold (ratio)); higher = stronger signal-on switching upon ATP binding; sequences stand for … in TCGTCGGCAGCGTCAGATGTGTATAAGAGACAGTTTTTTTTTTTTTTTTTTTTTTTTT…TC
Conditions: aptamer strand: ATP DNA aptamer (quencher-CACCTGGGGGAGTATTGCGGAGGAAGG + anchor), 100 nM annealed; ATP concentration: 500 uM
Outline: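 The quencher-labelled ATP aptamer, at 100 nM, was annealed to Cy3-labelled switching-strand clusters on a modified Illumina MiSeq flow-cell. The clusters were imaged in selection buffer, then after 15 min with 500 uM ATP at 22 °C, and this buffer/ATP cycle ran five times with NaOH stripping and re-annealing between runs. Per-cluster fluorescence ratios, summed target-cycle over summed buffer-cycle Cy3 intensity, were averaged per switch-domain sequence. Clusters outside 100-1000 RFU were excluded.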
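Further: ATP exposure 15 min at 22 °C before imaging.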

For TGGGGCCCGG, the switch fluorescence ratio was 0.984 ± 0.019.
TGGGGCCTGG showed a switch fluorescence ratio of 1.1 ± 0.23.
In the case of TGGGGCCTGT, the switch fluorescence ratio is reported as 0.978 ± 0.023.
Sequence TGGGGCGGGG has a switch fluorescence ratio of 0.983 ± 0.018.
TGGGGCGGTG showed a switch fluorescence ratio of 1.001 ± 0.0085.
Work on TGGGGCGTAT yielded a switch fluorescence ratio of 1.04 ± 0.039.
TGGGGCTACA was tested, and the switch fluorescence ratio was 0.983 ± 0.056.
TGGGGCTACC showed a switch fluorescence ratio of 1.06 ± 0.093.
TGGGGCTCAG gave a switch fluorescence ratio of 0.986 ± 0.027.
TGGGGCTTCG was tested, and the switch fluorescence ratio was 0.92 ± 0.077.
With TGGGGCTTGA the switch fluorescence ratio was 0.9684 ± 0.005.
With TGGGGG the switch fluorescence ratio was 1 ± 0.033.
Work on TGGGGGAAAG yielded a switch fluorescence ratio of 0.993 ± 0.026.
With TGGGGGAACA the switch fluorescence ratio was 0.989 ± 0.018.
In the case of TGGGGGAAGG, the switch fluorescence ratio is reported as 1.03 ± 0.061.
Work on TGGGGGACCT yielded a switch fluorescence ratio of 1.09 ± 0.1.
With TGGGGGACTA the switch fluorescence ratio was 0.967 ± 0.033.
TGGGGGATTG showed a switch fluorescence ratio of 0.987 ± 0.031.
Sequence TGGGGGCACA has a switch fluorescence ratio of 1.0343 ± 0.00026.
TGGGGGCCTG showed a switch fluorescence ratio of 0.99 ± 0.033.
Sequence TGGGGGCCTT has a switch fluorescence ratio of 1.02 ± 0.053.
TGGGGGCGGC gave a switch fluorescence ratio of 1.046 ± 0.0061.
With TGGGGGGCCA the switch fluorescence ratio was 1 ± 0.027.
In the case of TGGGGGGCGG, the switch fluorescence ratio is reported as 1.02 ± 0.03.
TGGGGGGGAT showed a switch fluorescence ratio of 0.993 ± 0.026.
Sequence TGGGGGGGGA has a switch fluorescence ratio of 1.02 ± 0.036.
Work on TGGGGGGGTC yielded a switch fluorescence ratio of 0.988 ± 0.048.
TGGGGGGTCA gave a switch fluorescence ratio of 0.993 ± 0.02.
Work on TGGGGGGTGC yielded a switch fluorescence ratio of 1.13 ± 0.4.
TGGGGGTATA gave a switch fluorescence ratio of 1.03 ± 0.06.
TGGGGGTCAT showed a switch fluorescence ratio of 1.05 ± 0.061.
TGGGGGTCCC showed a switch fluorescence ratio of 0.991 ± 0.017.
Work on TGGGGGTCTA yielded a switch fluorescence ratio of 0.971 ± 0.031.
TGGGGGTT gave a switch fluorescence ratio of 0.997 ± 0.032.
For TGGGGGTTAC, the switch fluorescence ratio was 1.08 ± 0.13.
In the case of TGGGGGTTCG, the switch fluorescence ratio is reported as 0.99 ± 0.035.
With TGGGGGTTG the switch fluorescence ratio was 1 ± 0.032.
TGGGGGTTTG was tested, and the switch fluorescence ratio was 0.993 ± 0.021.
With TGGGGTATAT the switch fluorescence ratio was 0.996 ± 0.015.
Work on TGGGGTGCGG yielded a switch fluorescence ratio of 0.975 ± 0.026.
Work on TGGGGTGCTG yielded a switch fluorescence ratio of 1.05 ± 0.016.
For TGGGGTGGGA, the switch fluorescence ratio was 0.991 ± 0.029.
In the case of TGGGGTGGGG, the switch fluorescence ratio is reported as 1.05 ± 0.09.
TGGGGTGTCT was tested, and the switch fluorescence ratio was 0.993 ± 0.039.
TGGGGTTACT showed a switch fluorescence ratio of 1.01 ± 0.015.
For TGGGGTTCAT, the switch fluorescence ratio was 0.985 ± 0.025.
Sequence TGGGGTTCGG has a switch fluorescence ratio of 1 ± 0.079.
With TGGGGTTCTA the switch fluorescence ratio was 0.992 ± 0.026.
In the case of TGGGGTTGCC, the switch fluorescence ratio is reported as 0.96 ± 0.026.
TGGGGTTGGC was tested, and the switch fluorescence ratio was 1.17 ± 0.34.
For TGGGTAAACG, the switch fluorescence ratio was 1.023 ± 0.0035.
Work on TGGGTAAGGA yielded a switch fluorescence ratio of 1 ± 0.026.
In the case of TGGGTAATGT, the switch fluorescence ratio is reported as 1.01 ± 0.023.
In the case of TGGGTAATTT, the switch fluorescence ratio is reported as 1.03 ± 0.055.
For TGGGTACAGC, the switch fluorescence ratio was 1.02 ± 0.04.
Sequence TGGGTAGGTC has a switch fluorescence ratio of 1.014 ± 0.0014.
In the case of TGGGTAGTAA, the switch fluorescence ratio is reported as 0.993 ± 0.016.
With TGGGTATCGG the switch fluorescence ratio was 0.994 ± 0.021.
TGGGTATCGT gave a switch fluorescence ratio of 0.977 ± 0.029.
TGGGTATTAC showed a switch fluorescence ratio of 1.14 ± 0.26.
Sequence TGGGTCAATG has a switch fluorescence ratio of 0.9822 ± 0.0078.
Sequence TGGGTCCAAA has a switch fluorescence ratio of 1.006 ± 0.0076.
With TGGGTCGCCG the switch fluorescence ratio was 0.964 ± 0.012.
TGGGTCTAAG was tested, and the switch fluorescence ratio was 0.9669 ± 0.0093.
TGGGTCTAGA gave a switch fluorescence ratio of 0.975 ± 0.023.
With TGGGTCTTGA the switch fluorescence ratio was 1.001 ± 0.0062.
Work on TGGGTGAAAG yielded a switch fluorescence ratio of 1.02 ± 0.02.
TGGGTGAGGA gave a switch fluorescence ratio of 1.04 ± 0.054.
With TGGGTGATTA the switch fluorescence ratio was 0.9846 ± 0.005.
Sequence TGGGTGCGTC has a switch fluorescence ratio of 0.988 ± 0.014.
Work on TGGGTGGAAG yielded a switch fluorescence ratio of 1.042 ± 0.01.
TGGGTGGATC gave a switch fluorescence ratio of 1.02 ± 0.056.
Sequence TGGGTGTATC has a switch fluorescence ratio of 1.004 ± 0.0022.
Work on TGGGTGTGG yielded a switch fluorescence ratio of 1.015 ± 0.0075.
With TGGGTGTTGT the switch fluorescence ratio was 1.01 ± 0.034.
For TGGGTTATTA, the switch fluorescence ratio was 1 ± 0.018.
TGGGTTCAGC gave a switch fluorescence ratio of 1 ± 0.011.
Sequence TGGGTTCTGT has a switch fluorescence ratio of 0.974 ± 0.0099.
TGGGTTGCGT gave a switch fluorescence ratio of 1.01 ± 0.017.
Sequence TGGGTTGGAG has a switch fluorescence ratio of 0.9949 ± 0.0067.
TGGGTTTATG was tested, and the switch fluorescence ratio was 1 ± 0.03.
TGGGTTTGGA was tested, and the switch fluorescence ratio was 1.03 ± 0.049.
With TGGGTTTTGT the switch fluorescence ratio was 1.01 ± 0.029.
TGGTAAACGC gave a switch fluorescence ratio of 1.03 ± 0.05.
With TGGTAAAGGG the switch fluorescence ratio was 0.991 ± 0.034.
